The values below are quoted from earlier work in PMC11853434.

The term Kd denotes the equilibrium constant for the complex coming apart.

Like-named read-outs stand apart in the source and are kept apart here.

Data set [1] addresses SARS-CoV-2 spike RBD RBD (Severe acute respiratory syndrome coronavirus 2) (UniProt P0DTC2).
Data set [2] has the same target. This is another data set of the same source.

Turning to casirivimab, the Kd in data set [1] was 3.37 nM. For the substance imdevimab, the Kd in data set [2] was 45.2 nM.
